According to patent US20130330358A1 (UNIVERSITY OF SOUTHERN CALIFORNIA, published 2013):

What was measured:
[1] = target: HAUSP TRAF domain (HAUSP^62-205) (human); experiment: ITC
[2] = target: HAUSP TRAF domain (HAUSP^62-205) (human); experiment: ITC, titration against HAUSP TRAF domain, 20 °C
[3] = target: HAUSP TRAF domain (HAUSP^62-205) (human); experiment: competitive ITC: vIRF4^202-216 titrated into TRAF pre-titrated with p53^350-364 (competitor)
[4] = target: HAUSP TRAF domain (HAUSP^62-205) (human); experiment: competitive ITC: vIRF4^202-216 titrated into TRAF pre-titrated with p53^355-369 (competitor)
[5] = target: HAUSP TRAF domain (HAUSP^62-205) (human); experiment: competitive ITC: vIRF4^202-216 titrated into TRAF pre-titrated with MDM2^137-152 (competitor)

Chain of HAUSP TRAF domain (HAUSP^62-205) (human) (chain, as listed by the source): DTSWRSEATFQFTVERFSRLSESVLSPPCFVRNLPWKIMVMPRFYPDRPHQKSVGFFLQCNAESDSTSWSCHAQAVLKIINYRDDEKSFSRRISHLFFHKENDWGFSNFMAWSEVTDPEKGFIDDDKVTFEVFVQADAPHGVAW

Row | Binder | fold higher affinity (against vIRF4^153-216) [1] [fold] | TΔS [2] [kcal/mol] | ΔG [2] [kcal/mol] | ΔH [2] [kcal/mol] | ΔHobs [3] [kcal/mol] | ΔHobs [4] [kcal/mol] | ΔHobs [5] [kcal/mol]
1 | vIRF4^153-256 (other) SDTREQSYEEAGAAAPAPPKAPSGLRGRPRKSNRYYNVGDITTEQKAACSVWIPVNEGASTSGMGSSGTRQVTQASSFTWRVPGDPPAPSTLTGPSDPHSSGAG | 7 | – | – | – | – | – | –
2 | SVWIPVNEGASTSGM (Synthesized peptide (Peptron); also called vif1 peptide) [vIRF4^202-216 peptide (vif1)] | – | -10.6 | -8.6 | -19.2 | -19.1 | -19.1 | -25.9
